# US20220002417A1 (BAILI BIO CHENGDU PHARMACEUTICAL, published 2022)
# Target: T1, human PD-L1 extracellular domain (human, UniProt Q9NZQ7 19-238)
# T1 construct: also called recombinant PD-L1; recombinant human PD-L1 extracellular domain protein
# Assay: BLI (Octet Red 96), antibody on anti-human Fc biosensor, PD-L1 ECD in solution, 1:1 global fit
# Method: The binding kinetics of selected anti-PD-L1 antibodies AB1-AB5 and AB1HU-AB5HU was determined by bio-layer interferometry analysis on a ForteBio Octet Red 96 instrument. First, purified antibodies were produced by protein A chromatography using HEK-293 transiently-transfected antibody supernatants. This assay was performed by immobilizing the purified antibodies to anti-human Fc biosensors. PD-L1 binding to and dissociation from the biosensors was then observed at various concentrations of PD-L1. Specifically, eight anti-human Fc biosensors were placed into wells containing the same purified antibody for 5 minutes. Biosensors were equilibrated in kinetics buffer (Pall ForteBio) for 1 minute to establish a baseline. Association of PD-L1 was observed by placing the biosensors into wells containing various concentrations of human PD-L1 extracellular domain for 5 minutes. Dissociation was measured after transfer of the biosensors into kinetics buffer and monitoring the interferometry signals for 15 minutes. All steps of the assay were performed at 30° C. with shaking at 1000 RPM. The on and off rates (kon and koff) and the equilibrium binding constant KD were determined using the software provided by the manufacturer and were fit using a 1:1 binding global fit model comprising several of the concentrations tested.
# T1 sequence (Q9NZQ7 19-238 limits assumed): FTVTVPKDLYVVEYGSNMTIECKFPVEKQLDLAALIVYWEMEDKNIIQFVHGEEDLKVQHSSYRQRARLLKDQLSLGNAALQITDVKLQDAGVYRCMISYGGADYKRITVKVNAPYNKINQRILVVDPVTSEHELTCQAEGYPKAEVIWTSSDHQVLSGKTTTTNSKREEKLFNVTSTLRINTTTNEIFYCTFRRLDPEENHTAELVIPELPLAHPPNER
Binder,Kd,koff,kon
"AB2HU (humanized form of antibody AB2) (antibody, human IgG1, kappa, V domains shown, Humanized, human gamma-1 / kappa constant domains) VH: not shown VL: AYDMTQSPSSVSASVGDRVTINCQASESISSFLSWYQQKPGKAPKLLIFSASTLASGVPSRFSGSGSGTDFTLTISSLQPEDFATYYCQQGYSKSNVDNAFGGGTKVEIKR",0.366 nM,0.000203 s⁻¹,553000 M⁻¹ s⁻¹
"AB5HU (humanized form of antibody AB5) (antibody, human IgG1, kappa, V domains shown, Humanized, human gamma-1 / kappa constant domains) VH: QSVEESGGGLVQPGGSLRLSCTASGIDLNTYDMIWVRQAPGKGLEWVGIITYSGSRYYANWAKGRFTISKDNTKNTVYLQMNSLRAEDTAVYYCARDYMSGSHLWGQGTLVTVSS VL: AYDMTQSPSSVSASVGDRVTIKCQASEDIYSFLAWYQQKPGKAPKLLIHSASSLASGVPSRFSGSGSGTDFTLTISSLQPEDFATYYCQQGYGKNNVDNAFGGGTKVEIKR",0.401 nM,0.000234 s⁻¹,583000 M⁻¹ s⁻¹
"AB1 (rabbit/human chimeric anti-PD-L1 antibody) (antibody, human IgG1, kappa, V domains shown, Rabbit variable domains on human IgG1 / human kappa constant domains; purified by protein A from HEK-293 supernatants; also called AB1 CHIMERIC) VH: QEQLVESGGGLVQPEGSLTLTCKASGFSFSSGYDMCWVRRAPGKGLEWIACIAAGSAGITYDANWAKGRFTISKTSSTTVTLQMTSLTAADTATYFCARSAFSFDYAMDLWGPGTLVTVSS VL: DPVLTQTPASVEVAVGGTVTIKCQASQSISSHLNWYQQKPGQPPKLLIYKASTLASGVPSRFKGSGSGTEFTLTISSVQCDNAATYYCQQGYSWGNVDNVFGGGTEVVVKR",0.347 nM,0.00015 s⁻¹,433000 M⁻¹ s⁻¹
"AB2 (rabbit/human chimeric anti-PD-L1 antibody) (antibody, human IgG1, kappa, V domains shown, Rabbit variable domains on human IgG1 / human kappa constant domains; also called AB2 CHIMERIC) VH: QSLEESGGRLVTPGTPLTLTCTTSGIDLSTYDMIWVRQAPGKGLEYIGIISYVGNTYYASWAKGRFTLSKTSTTVDLRITSPTTEDTATYFCARDFISGSHLWGPGTLVTVSS VL: AYDMTQTPASVSAAVGGTVTINCQASESISSFLSWYQQKPGQRPRLLIFSASTLASGVPSRFKGSGSGTEFTLTISGVECADAATYYCQQGYSKSNVDNAFGGGTEVVVKR",0.379 nM,0.000166 s⁻¹,438000 M⁻¹ s⁻¹
"AB1HU (humanized form of antibody AB1) (antibody, human IgG1, kappa, V domains shown, Humanized, human gamma-1 / kappa constant domains) VH: EVQLLESGGGLVQPGGSLRLSCAASGFSFSSGYDMCWVRQAPGKGLEWIACIAAGSAGITYDANWAKGRFTISRDNSKNTLYLQMNSLRAEDTAVYYCARSAFSFDYAMDLWGQGTLVTVSS VL: DIQMTQSPSTLSASVGDRVTITCQASQSISSHLNWYQQKPGKAPKLLIYKASTLASGVPSRFSGSGSGTEFTLTISSLQPDDFATYYCQQGYSWGNVDNVFGGGTKVEIKR",0.422 nM,0.000239 s⁻¹,568000 M⁻¹ s⁻¹
"AB4HU (humanized form of antibody AB4) (antibody, human IgG1, kappa, V domains shown, Humanized, human gamma-1 / kappa constant domains) VH: EVQLVESGGGLVQPGGSLRLSCTVSGIDLSVINMGWVRQAPGKGLEWIGTITYVGNTYYASWAKGRFTISKTSTTVDLKITSPTTEDTAVYYCARESGTIYYSYFNLWGQGTLVTVSS VL: AFELTQSPSSLSASVGDRVTIKCQASESISNYLSWYQQIPGKVPKLLIYYASNLASGVPSRFSGSGSGTDFTLTISSLQPEDVATYYCQSYYGGGSAYTFGGGTKVEIKR",1.7 nM,0.000766 s⁻¹,451000 M⁻¹ s⁻¹
"AB5 (rabbit/human chimeric anti-PD-L1 antibody) (antibody, human IgG1, kappa, V domains shown, Rabbit variable domains on human IgG1 / human kappa constant domains; also called AB5 CHIMERIC) VH: QSVEESGGRLVTPGTPLTLTCTVSGIDLNTYDMIWVRQAPGKGLEWIGIITYSGSRYYANWAKGRFTISKTSTTVDLRITSPTTEDTATYFCARDYMSGSHLWGPGTLVTVSS VL: AYDMTQTPASVEVAVGGTVTIKCQASEDIYSFLAWYQLKPGQSPKLLIHSASSLASGVSSRFKGSGSGTHFTLTISGVECADAATYYCQQGYGKNNVDNAFGGGTEVVVKR",0.286 nM,0.000175 s⁻¹,613000 M⁻¹ s⁻¹
"AB3 (rabbit/human chimeric anti-PD-L1 antibody) (antibody, human IgG1, kappa, V domains shown, Rabbit variable domains on human IgG1 / human kappa constant domains; also called AB3 CHIMERIC) VH: QEQLEESGGGLVTPGGTLTLTCTVSGFSLSSYWMSWVRQAPGKGLEWIGVIDTNVYIYYANWAKGRFTISKTSTTVDLKITSPTTEDTATYFCARYVGNNDDYINLWGPGTLVTVSS VL: AVLTQTPSPVSAAVGGTVSISCQSSQSVYNGYWLSWYQQKPGQPPKLLIYGASTLASGVPSRFKGSGSGTQFTLTINDVQCDDAATYYCLGSYTSSTENSFGGGTEVVVKR",0.467 nM,0.000144 s⁻¹,308000 M⁻¹ s⁻¹
"AB4 (rabbit/human chimeric anti-PD-L1 antibody) (antibody, human IgG1, kappa, V domains shown, Rabbit variable domains on human IgG1 / human kappa constant domains; also called AB4 CHIMERIC) VH: QSVEESGGRLVTPGTPLTLTCTVSGIDLSVINMGWVRQAPGEGLEWIGTITYVGNTYYASWAKGRFTISKTSTTVDLKITSPTTEDTATYFCARESGTIYYSYFNLWGQGTLVTVSS VL: AFELTQTPASVSEPVGGTVTIKCQASESISNYLSWYQQIPGQPPNLLIYYASNLASGVPSRFKGSGSGTEFTLTISDLECADAATYYCQSYYGGGSAYTFGGGTEVVVKR",1.01 nM,0.000422 s⁻¹,417000 M⁻¹ s⁻¹
"AB3HU (humanized form of antibody AB3) (antibody, human IgG1, kappa, V domains shown, Humanized, human gamma-1 / kappa constant domains) VH: EVQLVESGGGLVQPGGSLRLSCAASGFSLSSYWMSWVRQAPGKGLEWIGVIDTNVYIYYANWAKGRFTISRDNSKNTLYLQMNSLRAEDTAVYYCARYVGNNDDYINLWGQGTLVTVSS VL: DIQMTQSPSTLSASVGDRVTITCQSSQSVYNGYWLSWYQQKPGKAPKLLIYGASTLASGVPSRFSGSGSGTEFTLTISSLQPDDFATYYCLGSYTSSTENSFGGGTKVEIKR",1.81 nM,0.000337 s⁻¹,186000 M⁻¹ s⁻¹
